Consider six molecules from patent US20200247894A1 (Regeneron, published 2020).

The target in test [1] is T1, Macaca fascicularis IL2Rγ extracellular domain expressed with a C-terminal myc-myc-hexahistidine tag (Macaca fascicularis).
T1 construct: also called mfIL-2Rg-MMH; mfIL-2RG-MMH
T1 chain: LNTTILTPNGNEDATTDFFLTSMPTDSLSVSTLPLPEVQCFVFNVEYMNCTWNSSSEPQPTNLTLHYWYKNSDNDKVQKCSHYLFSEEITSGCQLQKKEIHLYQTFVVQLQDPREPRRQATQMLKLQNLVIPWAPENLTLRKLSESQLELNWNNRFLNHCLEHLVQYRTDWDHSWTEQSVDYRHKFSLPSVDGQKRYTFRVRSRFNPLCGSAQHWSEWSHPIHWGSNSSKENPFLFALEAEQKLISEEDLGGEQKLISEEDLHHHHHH
Description: SPR Biacore 4000, mAb captured by anti-hFc, 37C, dissociation in PBS-T pH 7.4. The procedure: (§1) The dissociation rate constant (kd) for binding of IL-2Rγ reagents to purified anti-IL2Rγ monoclonal antibodies was determined using a real-time surface plasmon resonance based Biacore 4000 biosensor platform. […] The CM5 Biacore sensor surface derivatized by amine coupling with monoclonal mouse anti-human Fc antibody (GE, Catalog # BR-1008-39) was used to capture anti-IL2Rγ monoclonal antibodies expressed with human IgG4 Fc. All the IL2Rγ reagents were expressed with a C-terminal myc-myc-hexahistidine tag (subsequently referred to with a -MMH suffix). […] The dissociation of bound IL-2Rg-MMH was performed in PBS-T-pH7.4 or PBS-T-pH6.0 running buffers for 6 minutes.
(§2) Dissociation rate constants (kd) in two running buffers were determined by fitting the real-time binding sensorgrams to a 1:1 binding model using Scrubber 2.0c curve-fitting software. Values of dissociation rate for […] mAb binding to hIL-2RG-MMH and mfIL-2RG-MMH at 25° C. and 37° C. in PBS-T-pH7.4 and PBS-T-pH6.0 is shown in Table 2-1 through Table 2-8.

The target of test [2] is T1, Macaca fascicularis IL2Rγ extracellular …. The experiment in a line: SPR Biacore 4000, mAb captured by anti-hFc, 37C, dissociation in PBS-T pH 6.0. The procedure:
as §1, §2
Background: SPR reads the build-up and loss of mass on a sensor chip optically.

Test [3] has as its target T2, Human IL2Rγ extracellular domain expressed with a C-terminal myc-myc-hexahistidine tag (human).
T2 construct: also called hIL-2Rg-MMH; hIL-2RG-MMH
T2 chain: T1 chain with A14T, T16A, S22T, R141H, S228T
The experiment in a line: SPR Biacore 4000, mAb captured by anti-hFc, HBS-ET, 37C. The procedure:
(§3) Equilibrium dissociation constants (KD values) for IL-2Rγ binding to purified anti-IL2Rγ monoclonal antibodies were determined using a Biacore 4000 instrument equipped with a real-time surface plasmon resonance biosensor. All binding studies were performed in 10 mM HEPES, 150 mM NaCl, 3 mM EDTA, and 0.05% v/v Surfactant Tween-20, pH 7.4 (HBS-ET) running buffer at 25° C. and 37° C. The Biacore sensor surface was first derivatized by amine coupling with a monoclonal mouse anti-human Fc antibody (GE, # BR-1008-39) to capture anti-IL2Rγ monoclonal antibodies.
(§4) The dissociation of monoclonal antibody bound IL2Rγ reagents were monitored for 8-10 minutes in HBS-ET running buffer. Kinetic association (kₐ) and dissociation (kd) rate constants were determined by fitting the real-time sensorgrams to a 1:1 binding model using Scrubber 2.0c curve fitting software. Binding dissociation equilibrium constants (KD) and dissociative half-lives (t_{1/2}) were calculated from the kinetic rate constants as: […]

The target in test [4] is T2, Human IL2Rγ extracellular domain …. The experiment in a line: SPR Biacore 4000, mAb captured by anti-hFc, HBS-ET, 25C. The procedure:
as §3, §4

Test [5] deals with T1, Macaca fascicularis IL2Rγ extracellular …. The description is as above. The procedure:
as §3, §4

Numbering of substitutions follows the chain as printed.

B1: H4H13541P (antibody, human IgG4 S228P, kappa, V domains shown)
VH: EVQLVESGGGVVRPGGSLRLSCAASGFIFDDYDMSWVRQPPGRGLEWVSGIDWFGGTRGYADSMKGRFTISRDNAKNSLYLQMNSLRVEDTAFYYCARGGAIVGAVTPFDYWGQGTLVTVSS
VL: DIQMTQSPSSLSASVGNRVTLSCRASQSINTYLSWYQQRPGKAPKLLIYAASSLQSGVPSRFSGSGAGTDFTLTISSLQPEDFATYYCQQSYSAPLTFGGGTKVEIKR
notes: anti-IL2Rγ monoclonal antibody expressed with human IgG4 Fc
For the molecule B1, in test [1], the “100 nM Ag Bound (RU)” value was found to be 100 RU, the koff is 0.000512 s⁻¹ and the t1/2 is 23 min. In test [2], the “100 nM Ag Bound (RU)” value amounted to 91 RU, the koff stood at 0.0015 s⁻¹ and the t1/2 worked out at 8 min. Besides, in test [3], the “100 nM Ag Bound” value stood at 103 RU, binding was put at a Kd of 5.01 nM, the koff stood at 0.00078 s⁻¹ and the on-rate constant (kon) is 156000 M⁻¹ s⁻¹. The t1/2 in test [3] came out at 15 min. Moreover, in test [4], the “100 nM Ag Bound” value came to 72 RU, the Kd worked out at 2.41 nM, the off-rate (koff) stood at 0.000252 s⁻¹ and the kon is 105000 M⁻¹ s⁻¹. In addition, the t1/2 in test [4] came to 46 min. Moreover, in test [5], the “100 nM Ag Bound” value is 82 RU; the affinity, expressed as Kd, was 1.85 nM; the koff was 0.000315 s⁻¹; the on-rate constant (kon) was 170000 M⁻¹ s⁻¹. In addition, in test [5], the t1/2 was 37 min.

B2: H4H12913P2 (antibody, human IgG4 S228P, kappa, V domains shown)
VH: EVQLVESGGGVVRPGGSLRLSCAASGFTFDDYGMSWVRQAPGKGLEWISSINRNGGSADYADSVKGRFTISRDNAKNSLFLQMSSLRAEDTALYHCASGEFRFDYWGQGTLVTVSS
VL: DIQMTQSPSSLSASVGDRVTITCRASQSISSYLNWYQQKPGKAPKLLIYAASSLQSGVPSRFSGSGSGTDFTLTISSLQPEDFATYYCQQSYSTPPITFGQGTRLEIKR
notes: as for B1
B2: in test [1], the “100 nM Ag Bound (RU)” value was 76 RU, the koff worked out at 0.000894 s⁻¹ and the t1/2 worked out at 13 min. In test [2], the “100 nM Ag Bound (RU)” value was found to be 54 RU, the koff is 0.00296 s⁻¹ and the t1/2 turned out to be 4 min. In test [3], the “100 nM Ag Bound” value turned out to be 24 RU, binding was put at a Kd of 33.4 nM, the koff amounted to 0.00348 s⁻¹ and the kon was 104000 M⁻¹ s⁻¹. The same molecule came in with a t1/2 in test [3] of 3.3 min. In test [4], the “100 nM Ag Bound” value was 42 RU, the Kd was 11.2 nM, the koff is 0.000691 s⁻¹ and the kon was 62000 M⁻¹ s⁻¹. The same molecule showed a t1/2 in test [4] of 17 min. Further, in test [5], the “100 nM Ag Bound” value came out at 34 RU, the Kd was found to be 14.1 nM, the koff was 0.000633 s⁻¹ and the kon was 44900 M⁻¹ s⁻¹. The t1/2 in test [5] came to 18 min.

B3: H4H13545P2 (antibody, human IgG4 S228P, kappa, V domains shown)
VH: QVQLQQSGPGLVKPSQTLSLTCDISGDSVSSNIATWNWIRQSPSRGLEWLGRTYYRSKWYKDYAVSVKSRITINPDTSKNQFSLQVNSVTPEDTAVYYCARMTGPRYYFEYWGQGTLVTVSS
VL: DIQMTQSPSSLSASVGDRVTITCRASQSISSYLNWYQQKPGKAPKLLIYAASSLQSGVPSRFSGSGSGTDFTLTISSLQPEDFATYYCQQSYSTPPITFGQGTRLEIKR
notes: as for B1
In the case of B3, in test [1], the “100 nM Ag Bound (RU)” value amounted to 17 RU. Moreover, the “100 nM Ag Bound (RU)” value in test [2] amounted to 13 RU. Besides, in test [3], the “100 nM Ag Bound” value came out at 7 RU, binding was characterised by a dissociation constant (Kd) of 113 nM, the koff worked out at 0.0691 s⁻¹ and the kon was determined as 611000 M⁻¹ s⁻¹. The molecule further displayed a t1/2 in test [3] of 0.2 min. In test [4], the “100 nM Ag Bound” value came out at 12 RU, the Kd is 336 nM, the koff was 0.0575 s⁻¹ and the kon was 171000 M⁻¹ s⁻¹. In test [4], the t1/2 is 0.2 min. In test [5], the “100 nM Ag Bound” value amounted to 26 RU, binding was characterised by a dissociation constant (Kd) of 143 nM, the koff was 0.014 s⁻¹ and the kon was 97800 M⁻¹ s⁻¹. In addition, the t1/2 in test [5] came to 0.8 min.

B4: H4H13544P2 (antibody, human IgG4 S228P, kappa, V domains shown)
VH: QLQLQESGPGLVKPSETLSLTCTVSGGSISIKNYYWGWIRQPPGKGLEWIGSIYYSGTTYYNPSLKSRVTISVDTSKNQFSLKLSSVTAADTAVYHCARHGYSYGHGWFDPWGQGTLVTVSS
VL: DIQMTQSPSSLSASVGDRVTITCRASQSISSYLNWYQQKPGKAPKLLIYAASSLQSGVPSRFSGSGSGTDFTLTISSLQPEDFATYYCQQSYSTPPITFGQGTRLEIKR
notes: as for B1
For the molecule B4, in test [1], the “100 nM Ag Bound (RU)” value came out at 58 RU, the koff was 0.00362 s⁻¹ and the t1/2 was found to be 3.2 min. In test [2], the “100 nM Ag Bound (RU)” value worked out at 43 RU, the koff worked out at 0.00781 s⁻¹ and the t1/2 came out at 1.5 min. Further, in test [3], the “100 nM Ag Bound” value came out at 49 RU, the Kd was found to be 103 nM, the koff was 0.00782 s⁻¹ and the kon came out at 76000 M⁻¹ s⁻¹. Besides, the t1/2 in test [3] stood at 1.5 min. Besides, in test [4], the “100 nM Ag Bound” value was 51 RU, the equilibrium dissociation constant (Kd) worked out at 28.7 nM, the koff was 0.00135 s⁻¹ and the kon was 47200 M⁻¹ s⁻¹. The same molecule showed a t1/2 in test [4] of 9 min. In test [5], the “100 nM Ag Bound” value worked out at 60 RU, the Kd turned out to be 24.6 nM, the off-rate constant (koff) turned out to be 0.00127 s⁻¹ and the kon was 51700 M⁻¹ s⁻¹. In test [5], this molecule had a t1/2 of 9 min.

B5: H4H12924P2 (antibody, human IgG4 S228P, kappa, V domains shown)
VH: EVQLVESGGGLVQPGRSLRLSCAASGFTLEDYAMHWVRQAPGKGLEWVSGISWNRGSTGYADSVKGRFTISRDNAKNSLYLQMTSLRAEDTALYYCAKGFYSMDVWGQGTTVTVSS
VL: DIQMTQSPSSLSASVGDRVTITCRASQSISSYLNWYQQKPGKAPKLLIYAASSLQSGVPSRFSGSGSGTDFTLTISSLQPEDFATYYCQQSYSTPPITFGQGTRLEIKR
notes: as for B1
For B5, in test [1], the “100 nM Ag Bound (RU)” value is 133 RU, the koff amounted to 0.00267 s⁻¹ and the t1/2 was 4 min. In test [2], the “100 nM Ag Bound (RU)” value is 126 RU, the koff is 0.0124 s⁻¹ and the t1/2 amounted to 0.9 min. In addition, in test [3], the “100 nM Ag Bound” value came out at 26 RU, the dissociation constant Kd is 18 nM, the koff was determined as 0.0157 s⁻¹ and the kon came to 871000 M⁻¹ s⁻¹. In test [3], this molecule yielded a t1/2 of 0.7 min. Also, in test [4], the “100 nM Ag Bound” value stood at 78 RU, the Kd is 5.38 nM, the koff was found to be 0.00174 s⁻¹ and the kon stood at 322000 M⁻¹ s⁻¹. In addition, the t1/2 in test [4] was 7 min. Also, in test [5], the “100 nM Ag Bound” value worked out at 73 RU; the affinity, expressed as Kd, was 6.58 nM; the koff is 0.00165 s⁻¹; the kon was determined as 251000 M⁻¹ s⁻¹. Further, the t1/2 in test [5] came to 7 min.

B6: H4H13538P (antibody, human IgG4 S228P, kappa, V domains shown)
VH: EVQLVESGGGLVQPGGSLGLSCAASGFTFSNYAMSWVRQAPGKGLEWVSAVSGGGGGTYYADSVKGRFTISRDNSKNTVLLQMNSLRAEDTAVYYCARGRTGGLDYWGPGTLVTVSS
VL: DVVMTQSPLSLPVIFGQPASISCRSSQSLVDSDGNTYLNWLQQRPGQSPRRLIYEVSNRDSGVPDRFSGSGSGTDFTLTISRVEAEDVGIYYCMQGTRWPPTFGGGTKVEIKR
notes: as for B1
For B6, in test [1], the “100 nM Ag Bound (RU)” value stood at 119 RU, the koff is 0.00051 s⁻¹ and the t1/2 was determined as 23 min. Also, in test [2], the “100 nM Ag Bound (RU)” value came out at 122 RU, the koff stood at 0.00139 s⁻¹ and the t1/2 worked out at 8 min. Also, in test [3], the “100 nM Ag Bound” value is 99 RU, binding was put at a Kd of 3.4 nM, the koff worked out at 0.00108 s⁻¹ and the kon was 319000 M⁻¹ s⁻¹. In addition, the t1/2 in test [3] was determined as 11 min. For the same molecule, in test [4], the “100 nM Ag Bound” value came to 68 RU, the Kd was found to be 1.02 nM, the koff was found to be 0.000227 s⁻¹ and the kon was 222000 M⁻¹ s⁻¹. In addition, in test [4], the t1/2 came out at 51 min. In test [5], the “100 nM Ag Bound” value came out at 81 RU; the affinity, expressed as Kd, was 2.28 nM; the koff was found to be 0.000304 s⁻¹; the kon turned out to be 133000 M⁻¹ s⁻¹. This molecule registered a t1/2 in test [5] of 38 min.

In general, koff refers to a measure of how fast the partners let go of each other. Read a high koff as fast dissociation. Broadly, the Kd is the concentration at which binding is half-saturated. High values mean lower affinity, low ones higher affinity. The kon is a measure of how fast the partners come together.
